Measured values reported in the supplement of paper PMC11865577.

How the values were obtained:
Test in all cases: pull-down binding Z-score (relative to library population); higher = stronger binding
[1] = test system: G-clamp-N3 (biotin conjugate); conditions: RNA library: Library-1 (pre-miRNA loops + repeats)
Method in brief: (§1)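 An RNA library (1 μg) carrying a Cy5 or Cy3 end label was heat-folded in phosphate/NaCl/KCl buffer, then incubated for 60 min at 25 °C with streptavidin beads loaded with 100 pmol of biotin-conjugated small molecule. The beads were washed three times, and bound RNA was released in hot SDS and hybridised to a DNA barcode microarray for 20 h at 55.5 °C. Each binding score was derived by subtracting the signal from beads without compound, averaging the barcoded replicate probes after removing the highest and lowest, and expressing the result as a Z-score relative to the library mean and standard deviation.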

[2] = test system: TO-3-N3 (biotin conjugate); conditions: RNA library: Library-2
Method in brief: as §1

[3] = test system: TO-3-N3-2 (biotin conjugate); conditions: RNA library: Library-2
Method in brief: as §1

TO-N3 (biotin conjugate) = conditions: RNA library: Library-2
Method in brief: as §1

[4] = test system: TO-N3-2 (biotin conjugate); conditions: RNA library: Library-2
Method in brief: as §1

Sequence	pull-down binding Z-score [1]	pull-down binding Z-score [2]	pull-down binding Z-score [3]	pull-down binding Z-score (TO-N3 (biotin conjugate))	pull-down binding Z-score [4]
AAAACUUUCAUCCAAGUCAUU [hsa-mir-378d-2]	-0.902	0.382	-0.238	0.164	-0.609
AAAAUGUUUGUCAUAAACCGUUUU [hsa-mir-335]	-0.914	-0.185	-0.302	-0.158	-0.934
AAAAUUACUUUUGGUAAAUACAGUUUU [hsa-mir-559]	-0.546	-0.101	0.00825	-0.344	-1.04
AAAAUUCAUGGCCUACAGCUGCCUCUUGCCAAACUGCACUGGAUUUU [hsa-mir-5010]	-1.45	-0.25	-0.176	-0.482	0.111
AAACGUGCUCAGUGUCUUUAUAACAGGAAAGCCGUAAAC [hsa-mir-1272]	-0.626	0.0446	0.284	0.528	0.894
AAAGAGGUGUUUCUACUCCAU [hsa-mir-3690-1_3690-2]	-1.18	-0.497	-0.0114	-0.517	-0.235
AAAGCCAGGGACCCUGAGAGGCUUU [hsa-mir-6885]	3.29	0.0246	0.0899	0.556	1.24
CACGGUGUCUGCGGGAGGAGACCAUG [hsa-mir-4757]	-0.814	0.515		0.828	0.821
CACGUGCUGCUUGUAUAGACAUGAG [hsa-mir-3659]	0.468	0.88		1.11	0.528
CGCCCGACUUCGGGG [hsa-mir-4767]	0.767	-0.34		-0.314	0.0319
GACAUUGCCAGAGGAUGGGCAGCAGAC [hsa-mir-6855]	2		0.334	0.788	1.17
GGACCAGCCCAAAGGCCAGGCCUGACCC [hsa-mir-4780]	-0.253	0.125	0.11		1.62
GUACUGGGUCUCUCUGGUUAGACCAGAUCUGAGCCUGGGAGCUCUCUGGCUAACUAGGGAACCCACUGC [HIV_2014_Siegfried_nucs_8982_9173_4]	0.055				
GUCUCUCUGGUUAGACCAGAUCUGAGCCUGGGAGCUCUCUGGCUAACUAGGGAAC [HIV_2014_Siegfried_nucs_1_753_1]	-0.404				
GUGGAAGUGCCCACUGGUUCCA [hsa-mir-194-2]	-0.472	0.425	0.341		1.32
UCAUUUUCCUUAAAAAAUGA [hsa-mir-3128]	-1.07	-0.529	-0.469	-1.09	
UGGGGUUGGGGUUGGGGUUGGGGUUGGGGUUGGGGU [G4_(UGGGGU)6]	1.14				
UGGGGUUGGGGUUGGGGUUGGGGUUGGGGUUGGGGUUGGGGUUGGGGU [G4_(UGGGGU)8]	1.45				

Sequence	pull-down binding Z-score [1]	pull-down binding Z-score [2]	pull-down binding Z-score [3]	pull-down binding Z-score (TO-N3 (biotin conjugate))	pull-down binding Z-score [4]
UGGGUUGGGUUGGGUUGGGUUGGGUUGGGU [G4_(UGGGU)6]	1.62				
UGGGUUGGGUUGGGUUGGGUUGGGUUGGGUUGGGUUGGGU [G4_(UGGGU)8]	0.596				
UGGUUGGUUGGUUGGUUGGUUGGU [G4_(UGGU)6]	1.53				
UGGUUGGUUGGUUGGUUGGUUGGUUGGUUGGU [G4_(UGGU)8]	0.443				
UGGUUGGUUGGUUGGUUGGUUGGUUGGUUGGU [G4_r(UGGU)8]		8.68	9.27	7.53	5.6
UGGUUUCCAACCCACUAAUGGUGUUGGUUACCA		-0.662	-0.442	-1.05	-1.18
UGGUUUGUAACACAAAGGAAUUUUUAUGAACCA [SHAPE_invivo_SARS-CoV-2_Motif_466]		0.139	0.046	-0.0419	-0.605
UGGUUUUGCUAAAUUCCUAAAAACUA [DMSMaPseq_invitro_SARS-CoV-2_Motif_244]		-0.45	-0.0765	-0.632	-0.866
UGUAAAUCACAUAAACCACCCAUUAGUUUUCCAUUGUGUGCUAAUGGACAAGUUUUUGGUUUAUA		-0.529	0.371	-0.491	-0.995
UGUAAGCACAAGCUGAUGAGUACGAACUUAUGUACUCAUUCGUUUCGGAAGAGACAGGUACGUUAAUAGUUAAUAGCGUACUUCUUUUUCUUGCUUUCG [DMSMaPseq_invitro_SARS-CoV-2_Multi_80_ComplexLevel_1]		-1.03	-0.529	-0.883	-0.373
UGUACAUACAGCUAAUAAAUGGGAUCUCAUUAUUAGUGAUAUGUACG [DMSMaPseq_invitro_SARS-CoV-2_Motif_370]		-0.362	-0.188	-0.461	-0.223
UGUACAUCUUCUUUGCAUCAUUUUAUUAUGUAUGGAAAAGUUAUGUGCA [SHAPE_invitro_SARS-CoV-2_Motif_147]		-0.791	-0.347	-0.813	-0.553
UGUACUUGGAUUGGCUGCAAUCAUGCAAUUGUUUUUCAGCUAUUUUGCAGUACA [SHAPE_invivo_SARS-CoV-2_Motif_149]		-0.482	-0.559	-0.78	-0.907
UGUAUGAAAAUGCCUUUUUACCUUUUGCUAUGGGUAUUAUUGCUAUGUCUGCUUUUGCAAUGAUGUUUGUCAAACAUAAGCAUGCA		-0.713	0.0997	-0.547	-0.447
UGUCACAUCAAUCUGACA		-0.221	-0.268	-0.416	-0.472
UGUCAUUACUUCAGGUGAUGGCA		0.0463	-0.0892	-0.14	-1.31
UGUCCGUGAUCCACAGACA		-0.695	-0.597	-0.9	-0.685
UGUCUUUCGAUCAAAACCUGGAUUAUCAAAUAGGAUACAUCUGCAGUGGGGUUUUCGGUGACAACCCGCGUCCCGAAGAUGGAACAGGCA		-0.887	-0.424	-0.552	0.432
